B1: TPR t1 (parent)
chain: GACCAAUCUGCCCUCAGAGCUCGAGAACAUCUUCGGAUGCAGAGGAGGCAGGCUUCGGUGGCGCGAUAGCGCCAACGUCCUCAACCUCCAAUGCAUCCCACCACAUGAUGAUGCCUGAAGAGCCUUGGUUUUUUG

Variants of: B1
Test: polymerase ribozyme fitness, log enrichment relative to wild type (log ratio); higher = more active; in vitro selection for triplet polymerase activity
Method in brief: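 For each subunit of a heterodimeric triplet polymerase ribozyme, a mutant library was built by PCR and transcribed, then taken through a single in vitro selection round in triplicate. Selection involved annealing to a biotinylated primer, the partner subunit and triplets, incubation frozen at −7 °C, gel excision of extended constructs, capture on streptavidin beads and RT-PCR. Genotypes were retained after Illumina sequencing of inputs and outputs only with ≥10 input reads and ≥1 read in each output. Fitness is defined as the logarithm of a genotype's enrichment relative to wild-type enrichment, using inverse-variance-weighted averages across replicates, with the logarithm taken to base 2.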

Row | Variant | polymerase ribozyme fitness (log ratio)
1 | GACCAAUCUGCCCUCAGAGCUCGAGAACAUCUUCGGAUGCAGAGGAGGCAGGCUUCAGUGGCGCGAUAGCGCCAACGUCCUCAACCUCCAAUGCAUCCCACCACAUAAUGAUGCCUGAAGAGCCUUGGUUUUUUG | -6.98
2 | GACCAAUCUGCCCUCAGAGCUCGAGAACAUCUUCGGAUGCAGAGGAGGCAGGCUUCCGUGGCGCGAUAGCGCCAACGUCCUUAACCUCCAAUGCAUCCCACCACAUGAUGAUGCCUGAAGAGCCUUGGUUUUUUG | 0.151
3 | GACCAAUCUGCCCUCAGAGCUCGAGAACAUCUUCGGAUGCAGAGGAGGCAGGCUUCCGUGGCGCGAUAGCGCCAACGUCCUCAACCUCUAAUGCAUCCCACCACAUGAUGAUGCCUGAACAGCCUUGGUUUUUUG | -1.28
4 | GACCAAUCUGCCCUCAGAGCUCGAGAACAUCUUCGGAUGCAGAGGAGGCAGGCUUCCGUGGCGCGAUAGCGCCAACGUCCUCAACCUCCAAUGCAUCCCACCAUAUGAUGAUGCCUGAAGAGCCUUGGUUUUUUG | 0.227
5 | GACCAAUCUGCCCUCAGAGCUCGAGAACAUCUUCGGAUGCAGAGGAGGCAGGCUUCCGUGGCGCGAUAGCGCCAACGUCCUCAACCUCCAAUGCAUCCCACCACAUGAUGAUGCCAGAAGAGCCUUGGUUUUUUG | -2.89
6 | GACCAAUCUGCCCUCAGAGCUCGAGAACAUCUUCGGAUGCAGAGGAGGCAGGCUUCCGUGCCGCGAUAGCGCCAACGUCCUCAACCUGCAAUGCAUCCCACCACAUGAUGAUUCCCGAAGUGCCUUGGUUUUUUG | -6.29
7 | GACCAAUCUGCCCUCAGAGCUCGAGAACAUCUUCGGAUGCAGAGGAGGCAGGCUUCCGUGGCGCGAUAGCGCCAACGUCCUCAACCUCCAAUGCAUCCCACCACAUCAUGAUGCCUGAAGAGCCUUGGUUUUUUG | -6.59
8 | GACCAAUCUGCCCUCAGAGCUCGAGAACAUCUUCGGAUGCAGAGGAGGCAGGCUUCCAUGGCGCGAUAGCGCCAACGUCCUCUACAUCCAAUGCAUCCCACCACAUGAUGAUGCCUUAAGAGUCUUGGUUUUUUG | -6.95
9 | GACCAAUCUGCCCUCAGAGCUCGAGAACAUCUUCGGAUGCAGAGGAGGCAGGCUUCCGUGGCGCGAUAGCGCCAACGCCCUCAACCUCCAAUGCAUCCCACCACAUGAUGAUGCCUGAAGAGCCUUGGUUUUUUG | 0.0872
10 | GACCAAUCUGCCCUCAGAGCUCGAGAACAUCUUCGGAUGCAGAGGAGGCAGGCUUCCGUGGCGCGAUAGCGCUAACGUCCUCAACCUCCAAUGCAUCCCAACACAUGAUGCUGCCUGAAGAGCCUUGGUUUUUUG | -0.202
11 | GACCAAUCUGCCCUCAGAGCUCGAGAACAUCUUCGGAUGCAGAGGAGGCAGGCUUCCGUGGCGCGAUAACGCCAACGUCCUCAACCUCCAAUGCAUCCCACCACAUGAUGAUGCCUGAAGAGCCUUGGUUUUUUG | -3
12 | GACCAAUCUGCCCUCAGAGCUCGAGAACAUCUUCGGAUGCAGAGGAGGCAGGCUUCAGUGGCGCGAUAGCUCCAACGUCCUCAACCUCCAAUGCAUCCCACCACAUGAUGAUGCCUGAAGAGCAUUGGUUUUUUA | 0.736
13 | GACCAAUCUGCCCUCAGAGCUCGAGAACAUCUUCGGAUGCAGAGGAGGCAGGCUUCCGUAGCGCGAUAGCGCCAACGUCCUCAACCUCCAAUGCAUCCCACCACAUGAUGAUGCCUUAAGAGCCUUGGUUUUUUG | -2.47
14 | GACCAAUCUGCCCUCAGAGCUCGAGAACAUCUUCGGAUGCAGAGGAGGCAGGCUUCAGUGGCGCGAUAGCGCCAACGUCCUCAACCUCCAAUGCAUCCCACCACAUGAUGAUGCCUGAAGAGCCUUGGUAUUUUG | -1.13
15 | GACCAAUCUGCCCUCAGAGCUCGAGAACAUCUUCGGAUGCAGAGGAGGCAGGCUUCCGUGGCGCGAUAGCGCCAACGUCCUCAACCUCGGAUGCAUCCCACCACAUGAUGAUGCCUGAAGAGCCUUGGUUUUUUG | -1.31
16 | GACCAAUCUGCCCUCAGAGCUCGAGAACAUCUUCGGAUGCAGAGGAGGCAGGCUUCAGUGGCGCGAUAGCUCCAACGUCCUCAACCUCCAAUGCAUCCCACCACAUGAUGAUGCCUGAAGAGCCUUGGUUUUUUG | -0.925
17 | GACCAAUCUGCCCUCAGAGCUCGAGAACAUCUUCGGAUGCAGAGGAGGCAGGCUUCAGUGGCGCGAUAGCGCCAACGUCCUCAACCUCCAAUCCAUCCCACCACAUGAUGAUGCCUGAAGAGCCUUGGUGUUUUG | -3.23
18 | GACCAAUCUGCCCUCAGAGCUCGAGAACAUCUUCGGAUGCAGAGGAGGCAGGCUUCCGUGACGCGAUAGCGCCAACGUCCUCAACCUCCAAUGCAUCCCACCACAUGAUGAUGCCUGAAGAGCCUUGGUUUUUUG | -1.82
19 | GACCAAUCUGCCCUCAGAGCUCGAGAACAUCUUCGGAUGCAGAGGAGGCAGGCUUCAGUGGCGCGAUAGCGCCAACGUCCCCAACCUCCAAUCCAUCCCACCACAUGAUGAUGCCUGAAAAGCCUUGGUUUUUUG | -1.39
20 | GACCAAUCUGCCCUCAGAGCUCGAGAACAUCUUCGGAUGCAGAGGAGGCAGGCUUCCGUGGCGCGAUAGCGCCAACGGCCUCAACCUCCAAUGCAUCCCACCACAUGAUGAAGCCUGUAGAGCCUUGGUUUUUUG | 1.26
21 | GACCAAUCUGCCCUCAGAGCUCGAGAACAUCUUCGGAUGCAGAGGAGGCAGGCUUCAGUGGCGCGAUAGCGCCAACGUCCUCAACCUCCAAUUCAUCCCACCACAUGAUGAUGCCUGAAGAGCCUUGGUUUUUUG | -1.69

Row | Variant | polymerase ribozyme fitness (log ratio)
22 | GACCAAUCUGCCCUCAGAGCUCGAGAACAUCUUCGGAUGCAGAGGAGGCAGGCUUCAGUGGCGCGAUAGCGCCAACGUCCUCAACCUCCAAUGCAUCCCACCACAUGAUGAUGCCUGAAGAGCCUUUGUUUUUUG | -1.83
23 | GACCAAUCUGCCCUCAGAGCUCGAGAACAUCUUCGGAUGCAGAGGAGGCAGGCUUCAGUGGCGCGAUAUCGCCAACGUCCUCAACCUCCAAUGCAUACCACCACAUGAUGAUGCCUGAAGAGCCUUGGUUUCUUG | -3.61
24 | GACCAAUCUGCCCUCAGAGCUCGAGAACAUCUUCGGAUGCAGAGGAGGCAGGCUUCCGUGGCGCGAUAGCGCCAACGUCCUCAACCUCCAAUGCAUCCCACCACAAGAUGAUGCCUGAAGAGCCUUGGUUUUUUG | -0.376
25 | GACCAAUCUGCCCUCAGAGCUCGAGAACAUCUUCGGAUGCAGAGGAGGCAGGCUUCCGUGGCGCGAUAGCGUCAACGUCCUCAACCUCCAAUGCAUCCCACCACAUGAUGAUGCCUGAAGAGCCUUGGAUUUUUG | -1.29
26 | GACCAAUCUGCCCUCAGAGCUCGAGAACAUCUUCGGAUGCAGAGGAGGCAGGCUUCCGUGGCGCGAUAGCGCCAACGUCCUCAACCUCCAAUGCAUCCCACCACAUGAUGAGGCCUGAAGAGCCUUGGUUUUUUG | 0.543
27 | GACCAAUCUGCCCUCAGAGCUCGAGAACAUCUUCGGAUGCAGAGGAGGCAGGCUUCCGUGGCGCGAUAGCGCCAACGUCCUCAACCUCCAAUGCAUCCCACCAUAUGAUCAUGCCUGAAGAGCCUUGGUUAUUUG | -4.01
28 | GACCAAUCUGCCCUCAGAGCUCGAGAACAUCUUCGGAUGCAGAGGAGGCAGGCUUCCGUGACGCGAUAGCGCCAACGUCCUCAACCUCCAAUGCAUCCCACCACAUGAUUAUGCAUGAAGAGCCUUGGUUUUUUG | -2.7
29 | GACCAAUCUGCCCUCAGAGCUCGAGAACAUCUUCGGAUGCAGAGGAGGCAGGCUUCCGUGGCGCGAUAGCGCCAACGUCCUCAACCUCCAAUGCAUCCCACCACAUGAUGAUGCCUGAAGCGCCUUGGUUUUUUG | 1.63
30 | GACCAAUCUGCCCUCAGAGCUCGAGAACAUCUUCGGAUGCAGAGGAGGCAGGCUUCCGUGGCGCGAUAGCGCCAACGCCCUCAACCCCCAAUGCAUCCCACAACAUGAUGAUGCCUGAAGAGCAUUGGUUUUUUG | -0.477
31 | GACCAAUCUGCCCUCAGAGCUCGAGAACAUCUUCGGAUGCAGAGGAGGCAGGCUUCAGUGGCGCGAUAGCUCCAACGUCCUCAACCUCUAAUGCAUCCCACCACAUGAUGAUGCCUGAAGAGCCUUGGUUUUUUG | -1.34
32 | GACCAAUCUGCCCUCAGAGCUCGAGAACAUCUUCGGAUGCAGAGGAGGCAGGCUUCAGUGGCGCGAUAGCGCCAACGUCCUCAACCUCCAAUGCAUCCCACCACAUGAUGAUCCCUGAAGAGCCUUGGUUUUAUG | -3.86
33 | GACCAAUCUGCCCUCAGAGCUCGAGAACAUCUUCGGAUGCAGAGGAGGCAGGCUUCAGGGGCGCGAUAGCGCCAACGUCCUCAACCUCCAAUGCAUCCCACCACAUGAUGAUGCCUGAAGAGCCUUGGUUUUUUG | -0.399
34 | GACCAAUCUGCCCUCAGAGCUCGAGAACAUCUUCGGAUGCAGAGGAGGCAGGCUUCCGUGGCGAGAUAGCGCCAACGUCCUCAACCUCCAAUGCAUCCCACCACAUGAUGAUGCCUGAAGAGCUUUGGUUUUUUG | -6.08
35 | GACCAAUCUGCCCUCAGAGCUCGAGAACAUCUUCGGAUGCAGAGGAGGCAGGCUUCAGUGGCGCGAUAGCGCCAACGUCCUCAACCUCCAAUGCAUCCCACCACAUGAUGAUGCCGGAAGAGCCUUGGUUUUUUG | -3.51
36 | GACCAAUCUGCCCUCAGAGCUCGAGAACAUCUUCGGAUGCAGAGGAGGCAGGCUUCCGUGGCGCGAUAGCGCCAACGUCCUCAACCUCAAAUGCGUCCCACCACAUGAUGUUGCCUGAAGUGCCUUGGUUUUUUG | -2.97
37 | GACCAAUCUGCCCUCAGAGCUCGAGAACAUCUUCGGAUGCAGAGGAGGCAGGCUUCCGUGGCGCGAUAGCGCCAACGUCCUCAACCUCCAAGGCAUCCCACCACAUGAUGAUGCCUAAAGAGCCUUGGUUUUUUG | -3.55
38 | GACCAAUCUGCCCUCAGAGCUCGAGAACAUCUUCGGAUGCAGAGGAGGCAGGCUUCCGUGGCGCGAUAGCGCCAACGUCCUCCACCUCCAAUGCAUCCCACCACAUGAUGGUGCCUGAAGAACCUUAGUUUUUUG | -3.51
39 | GACCAAUCUGCCCUCAGAGCUCGAGAACAUCUUCGGAUGCAGAGGAGGCAGGCUUCCGUGGCGCGAUAGCGCCAACGUCCUCAACCUCCAAUACAUCCCACCACAUGAUGAUGCCUGAAGAGCCUUGGUUUUUUG | -0.552
40 | GACCAAUCUGCCCUCAGAGCUCGAGAACAUCUUCGGAUGCAGAGGAGGCAGGCUUCCGUGGCGCGAUAGCGCCAACGUCCUCAACCUCCAAUGAAUUCCACCACAUGAUGAUGCCUGAAGUUCCUUGGUUUUUUG | -1.21
41 | GACCAAUCUGCCCUCAGAGCUCGAGAACAUCUUCGGAUGCAGAGGAGGCAGGCUUCCGUUGCGCGAUAGCGCCAACGUCCUCAACCUACAAUGCAUCCCACCACAAGAUGAUGCCUGAAGAGCCUUGGUUUUUUG | -0.528
42 | GACCAAUCUGCCCUCAGAGCUCGAGAACAUCUUCGGAUGCAGAGGAGGCAGGCUUCCGUGGCGCGAUAGCGCCAACGUCCUCAACCUCCAAUUCAUCCCACCACAUGAUGUUCAUUGAAGAGCCAUGGUUUUUUG | -7.73

Source: the RNAGym collection of RNA variant scans (doi:10.1073/pnas.2313332121)
